This is an account of results in patent US20170137818.

The target of this data set is autotaxin (ENPP2/NPP2) (Homo sapiens) (UniProt Q13822). In words: inhibition.
Setting [1] is: NPP2 assay, no inhibition up to 1.0 uM.

With “GTGGTCTAGCTGTACTCNNNNNNNNNNNNNNNNNNNNNNNNNNNNNNNNNNNNNNNNCCACAGTCAACGAGCTA [40N DNA pool (SEQ 1)]”, the IC50 (LysoPLD assay, table says 40N only (which pool not stated)) is more than 1000 nM and the IC50 under setting [1] is more than 1000 nM.

Sequence “ACACTCACAGGCGCTGGNNNNNNNNNNNNNNNNNNNNNNNNNNNNNNCGTGCATGGCCGCTAGT [DNA pool (SEQ 17)]” had an IC50 under setting [1] of more than 1000 nM.
